Paper PMC8599812 (Nucleic Acids Research, 2021)
Like-named read-outs stand apart in the source and are kept apart here.

How the values were obtained:
SEC = biological target: the molecule itself; experiment: SEC
D2-Zn-WH [1] = biological target: T1, D2-Zn-WH (human, UniProt P46063 282-616); experiment: fluorescence anisotropy
D2-Zn-WH helix4A [2] = biological target: T2, D2-Zn-WH helix4A (human, UniProt P46063 282-616, F420A;F424A;S427A;S428A); experiment: fluorescence anisotropy
D2-Zn-WH [3] = biological target: T1, D2-Zn-WH; experiment: fluorescence anisotropy; remark: listed apart in the source
RECQ1T1,helix4A = RECQ1T1,helix4A (human, UniProt P46063 49-616, F420A;F424A;S427A;S428A); experiment: fluorescence anisotropy
RECQ1T1 = RECQ1T1 (human, UniProt P46063 49-616); experiment: fluorescence anisotropy
D2-Zn-WH [4] = biological target: T1, D2-Zn-WH; experiment: fluorescence anisotropy; remark: listed apart in the source
D2-Zn-WH helix4A [5] = biological target: T2, D2-Zn-WH helix4A; experiment: fluorescence anisotropy; remark: listed apart in the source

T2 sequence (P46063 282-616 F420A/F424A/S427A/S428A): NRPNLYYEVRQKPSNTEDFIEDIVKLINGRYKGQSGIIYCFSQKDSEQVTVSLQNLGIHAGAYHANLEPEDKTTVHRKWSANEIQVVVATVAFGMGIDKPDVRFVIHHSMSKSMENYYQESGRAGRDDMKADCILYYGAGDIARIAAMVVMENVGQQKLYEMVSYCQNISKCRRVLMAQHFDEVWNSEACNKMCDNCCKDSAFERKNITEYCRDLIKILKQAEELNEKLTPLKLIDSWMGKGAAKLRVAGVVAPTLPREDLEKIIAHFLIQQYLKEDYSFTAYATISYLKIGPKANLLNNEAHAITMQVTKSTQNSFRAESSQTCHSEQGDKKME

B1: RECQ1^T1 (near full-length human RECQ1, amino acid 49–616) (enzyme, UniProt P46063 49-616, looked up)
chain: CLEDSDAGASNEYDSSPAAWNKEDFPWSGKVKDILQNVFKLEKFRPLQLETINVTMAGKEVFLVMPTGGGKSLCYQLPALCSDGFTLVICPLISLMEDQLMVLKQLGISATMLNASSSKEHVKWVHAEMVNKNSELKLIYVTPEKIAKSKMFMSRLEKAYEARRFTRIAVDEVHCCSQWGHDFRPDYKALGILKRQFPNASLIGLTATATNHVLTDAQKILCIEKCFTFTASFNRPNLYYEVRQKPSNTEDFIEDIVKLINGRYKGQSGIIYCFSQKDSEQVTVSLQNLGIHAGAYHANLEPEDKTTVHRKWSANEIQVVVATVAFGMGIDKPDVRFVIHHSMSKSMENYYQESGRAGRDDMKADCILYYGFGDIFRISSMVVMENVGQQKLYEMVSYCQNISKCRRVLMAQHFDEVWNSEACNKMCDNCCKDSAFERKNITEYCRDLIKILKQAEELNEKLTPLKLIDSWMGKGAAKLRVAGVVAPTLPREDLEKIIAHFLIQQYLKEDYSFTAYATISYLKIGPKANLLNNEAHAITMQVTKSTQNSFRAESSQTCHSEQGDKKME
B1 was tested, and the “stoichiometry N” value (SEC) was 2.

GGATCTCGACGCTCTCCCTT (ssDNA) [Rec20_FL ssDNA 20-mer] gave a Kd (D2-Zn-WH [1]) of 1480 ± 110 nM.

B2: Rec20_FL/Rec20R 20 bp blunt duplex (dsDNA)
DNA 1: GGATCTCGACGCTCTCCCTT
DNA 2: AAGGGAGAGCGTCGAGATCC
B2 showed a Kd (D2-Zn-WH helix4A [2]) of 2080 ± 150 nM and a Kd (D2-Zn-WH [3]) of 1170 ± 120 nM.

B3: Fork30T_R_FL/Fork30T_F forked duplex (dsDNA)
DNA 1: TTTTTTTTTTTTTTTTTTTTTTTTTTTTTTCGTACCCGATGTGTTCGTTC
DNA 2: GAACGAACACATCGGGTACGTTTTTTTTTTTTTTTTTTTTTTTTTTTTTT
For B3, the Kd (RECQ1T1,helix4A) was 193 ± 27 nM and the Kd (RECQ1T1) was 87 ± 16 nM.

B4: Rec20_FL/Rec20R_3oh 20/10-mer 3' tailed duplex (dsDNA)
DNA 1: GGATCTCGACGCTCTCCCTT
DNA 2: GTCGAGATCC
B4 showed a Kd (D2-Zn-WH [4]) of 1970 ± 300 nM and a Kd (D2-Zn-WH helix4A [5]) of 5700 ± 1100 nM.
